Reference: patent US20250002610A1 (Genmab, published 2025)
Where a chain is given by its changes, count along the chain named.

Key:
[1] = target: T1, human DR4 (Death Receptor 4), cell surface expressed on human tumor cell lines (human, UniProt O00220 24-468); assay: flow cytometry, HCT-15 cells, n = 1
T1 construct: also called TNFRSF10A; TRAIL-R1
T1 sequence: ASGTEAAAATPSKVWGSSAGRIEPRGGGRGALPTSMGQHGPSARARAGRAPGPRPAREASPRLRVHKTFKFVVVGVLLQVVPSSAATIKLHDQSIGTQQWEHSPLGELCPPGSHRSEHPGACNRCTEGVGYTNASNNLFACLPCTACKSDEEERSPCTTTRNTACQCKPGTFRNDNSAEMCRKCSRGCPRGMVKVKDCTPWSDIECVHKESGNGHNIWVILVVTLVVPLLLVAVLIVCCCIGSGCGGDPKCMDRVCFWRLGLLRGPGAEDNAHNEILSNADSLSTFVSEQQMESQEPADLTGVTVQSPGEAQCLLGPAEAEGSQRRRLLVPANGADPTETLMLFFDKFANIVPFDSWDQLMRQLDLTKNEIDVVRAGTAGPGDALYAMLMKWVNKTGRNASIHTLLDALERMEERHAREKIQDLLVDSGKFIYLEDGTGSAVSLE

[2] = target: T1, human DR4 (Death Receptor 4), cell …; assay: flow cytometry, PANC-1 cells, average ± SEM
[3] = target: T1, human DR4 (Death Receptor 4), cell …; assay: flow cytometry, MDA-MB-231 cells, average ± SEM
[4] = target: T1, human DR4 (Death Receptor 4), cell …; assay: flow cytometry, MDA-MB-231 cells, average ± SEM; remark: listed apart in the source
[5] = target: T2, cynomolgus monkey FAPα on Expi293F cells (cynomolgus monkey (Macaca fascicularis), UniProt Q12884 1-760 (human entry)); assay: flow cytometry, Expi293F cells expressing cynomolgus monkey FAPα, n = 2
T2 sequence: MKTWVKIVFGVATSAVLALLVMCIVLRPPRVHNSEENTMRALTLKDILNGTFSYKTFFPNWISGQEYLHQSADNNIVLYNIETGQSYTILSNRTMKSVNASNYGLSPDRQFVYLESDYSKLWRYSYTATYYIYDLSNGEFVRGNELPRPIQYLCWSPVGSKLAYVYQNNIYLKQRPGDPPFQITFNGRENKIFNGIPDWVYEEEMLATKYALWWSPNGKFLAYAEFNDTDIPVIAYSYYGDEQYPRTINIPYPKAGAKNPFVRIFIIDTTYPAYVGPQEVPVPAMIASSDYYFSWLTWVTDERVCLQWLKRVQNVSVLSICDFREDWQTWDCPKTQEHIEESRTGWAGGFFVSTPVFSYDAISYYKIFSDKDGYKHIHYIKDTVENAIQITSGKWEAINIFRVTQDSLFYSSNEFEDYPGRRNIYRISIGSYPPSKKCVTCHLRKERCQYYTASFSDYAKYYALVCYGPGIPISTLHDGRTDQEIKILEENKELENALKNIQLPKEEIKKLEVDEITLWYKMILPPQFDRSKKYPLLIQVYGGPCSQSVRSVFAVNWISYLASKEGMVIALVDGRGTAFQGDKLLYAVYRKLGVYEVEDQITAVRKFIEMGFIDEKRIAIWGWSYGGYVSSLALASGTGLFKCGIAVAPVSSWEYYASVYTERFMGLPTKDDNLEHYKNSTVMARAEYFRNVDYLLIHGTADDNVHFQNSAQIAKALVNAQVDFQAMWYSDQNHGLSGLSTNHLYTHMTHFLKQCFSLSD
Protocol: Binding of BisG1-FAPα-FERL/DR4-FERR, BisG1-FAPα-FEAL/b12-FEAR and IgG1-FAPα-FERL to FAPα of species commonly used for nonclinical toxicology studies was assessed by flow cytometry using Expi293F cells transiently expressing FAPα from different animal species. IgG1-b12 was included as negative control.
Expi293F cells expressing recombinant FAPα from various species (human, cynomolgus monkey, dog, pig, rat or mouse) were seeded (20,000 cells/well) in 96-Well round bottom plates (Greiner Bio-one, Cat #650101). Antibody dilutions were prepared using FACS buffer, consisting of PBS (Capricorn Scientific, Cat #PBS-10XA, diluted to 1×PBS in distilled water)+1% BSA (Roche, Cat #10735086001)+0.02% Sodium Azide (Bio-World, Cat #41920044-3). Plates were centrifuged, supernatant was removed, and cells were resuspended in 100 μL of antibody dilutions (concentration range 30-0.00017 μg/mL with three-fold serial dilutions using FACS buffer) of BisG1-FAPα-FERL/DR4-FERR, BisG1-FAPα-FEAL/b12-FEAR, IgG1-FAPα-FERL and IgG1-b12 and incubated for 30 min at 4° C. […] After 30 min incubation at 4° C., cells were washed with FACS buffer and resuspended in FACS buffer supplemented with TO-PRO-3 Iodide viability marker (Invitrogen, Cat #T3605, diluted 1:4,000). Antibody binding to viable cells (gMFI of PE on TO-PRO-3 negative cells) was analyzed by flow cytometry on a FACS Celesta and FACS_Diva software (first two experiments) or iQue® 3 and FlowJo software (last experiment). gMFI was determined and visualized using GraphPad Prism. Binding curves were analyzed using nonlinear regression analysis. The concentration (pg/mL) at which 50% of the maximal effect was observed (EC₅₀) was derived from the fitted curves.

B1: BisG1-FAPα-FERL/DR4-FERR (bispecific antibody, human IgG1, kappa, lambda)
heavy 1: EVQLLESGGGLVQPGGSPRLSCEASGFTFSSYALSWVRQAPGKGLEWVSAISGSGGGRYYADSVKGRFTISRDNSKNTLFLQMNSLRAEDTAVYYCAKEGYSSSGTYWDHWGQGTLVTVSSASTKGPSVFPLAPSSKSTSGGTAALGCLVKDYFPEPVTVSWNSGALTSGVHTFPAVLQSSGLYSLSSVVTVPSSSLGTQTYICNVNHKPSNTKVDKRVEPKSCDKTHTCPPCPAPEFERGPSVFLFPPKPKDTLMISRTPEVTCVVVDVSHEDPEVKFNWYVDGVEVHNAKTKPREEQYNSTYRVVSVLTVLHQDWLNGKEYKCKVSNKALPAPIEKTISKAKGQPREPQVYTLPPSREEMTKNQVSLTCLVKGFYPSDIAVEWESNGQPENNYKTTPPVLDSDGSFLLYSKLTVDKSRWQQGNVFSCSVMHEALHNHYTQKSLSLSPG
light 1: AIQMTQSPSSVSASVGDRVTITCRASQGVSSWLAWYQQKPGRAPKLLIYVASTLQSGVPSRFSGSGSGTDFTLTINSLQPEDFATYYCQQANSFPPTFGQGTRLEMKRTVAAPSVFIFPPSDEQLKSGTASVVCLLNNFYPREAKVQWKVDNALQSGNSQESVTEQDSKDSTYSLSSTLTLSKADYEKHKVYACEVTHQGLSSPVTKSFNRGEC
heavy 2: QVQLQESGPGLVKPSGTLSLTCAVSGGSISSYSWWSWIRQPPGKGLEWIGELYHSGSTNYNPSLKSRVTISVDKSKNQFSLKLRSVTAADTAVYYCVRGVATIDYWGQGTLVTVSSASTKGPSVFPLAPSSKSTSGGTAALGCLVKDYFPEPVTVSWNSGALTSGVHTFPAVLQSSGLYSLSSVVTVPSSSLGTQTYICNVNHKPSNTKVDKRVEPKSCDKTHTCPPCPAPEFERGPSVFLFPPKPKDTLMISRTPEVTCVVVDVSHEDPEVKFNWYVDGVEVHNAKTKPREEQYNSTYRVVSVLTVLHQDWLNGKEYKCKVSNKALPAPIEKTISKAKGQPREPQVYTLPPSREEMTKNQVSLTCLVKGFYPSDIAVEWESNGQPENNYKTTPPVLDSDGSFFLYSRLTVDKSRWQQGNVFSCSVMHEALHNHYTQKSLSLSPG
light 2: QSALTQPPSASGSPGQSVTISCTGTSSDVGGYNFVSWYQQDPGKAPKLLIYEVTKRPSGVPDRFSGSKSGNTASLTVSGLQAEDEADYYCSSYAGSNNVMFGGGTKLTVLGQPKAAPSVTLFPPSSEELQANKATLVCLISDFYPGAVTVAWKADSSPVKAGVETTTPSKQSNNKYAASSYLSLTPEQWKSHRSYSCQVTHEGSTVEKTVAPTECS
notes: Human IgG1 bispecific made by controlled Fab-arm exchange of IgG1-FAPα-FERL and IgG1-DR4-FERR; monovalent for FAPα and for DR4; also called GEN1057
**Q.** With B1 as the binder, how does the EC50 [1] read?
**A.** The EC50 was 0.59 µg/mL.

**Q.** What about the EC50 [2] of the same binder?
**A.** The EC50 was 1.7 µg/mL.

**Q.** What about the EC50 [3] of the same binder?
**A.** Its EC50 is 1.18 µg/mL.

**Q.** What about the EC50 [4] of the same binder?
**A.** Its EC50 is 0.72 µg/mL.

**Q.** What about the EC50 [5] of the same binder?
**A.** The EC50 was 0.36 µg/mL.

B2: BisG1-b12-FERL/DR4-FERR (bispecific antibody, human IgG1, kappa, lambda)
heavy 1: QVQLVQSGAEVKKPGASVKVSCQASGYRFSNFVIHWVRQAPGQRFEWMGWINPYNGNKEFSAKFQDRVTFTADTSANTAYMELRSLRSADTAVYYCARVGPYSWDDSPQDNYYMDVWGKGTTVIVSSASTKGPSVFPLAPSSKSTSGGTAALGCLVKDYFPEPVTVSWNSGALTSGVHTFPAVLQSSGLYSLSSVVTVPSSSLGTQTYICNVNHKPSNTKVDKRVEPKSCDKTHTCPPCPAPEFERGPSVFLFPPKPKDTLMISRTPEVTCVVVDVSHEDPEVKFNWYVDGVEVHNAKTKPREEQYNSTYRVVSVLTVLHQDWLNGKEYKCKVSNKALPAPIEKTISKAKGQPREPQVYTLPPSREEMTKNQVSLTCLVKGFYPSDIAVEWESNGQPENNYKTTPPVLDSDGSFLLYSKLTVDKSRWQQGNVFSCSVMHEALHNHYTQKSLSLSPG
light 1: EIVLTQSPGTLSLSPGERATFSCRSSHSIRSRRVAWYQHKPGQAPRLVIHGVSNRASGISDRFSGSGSGTDFTLTITRVEPEDFALYYCQVYGASSYTFGQGTKLERKRTVAAPSVFIFPPSDEQLKSGTASVVCLLNNFYPREAKVQWKVDNALQSGNSQESVTEQDSKDSTYSLSSTLTLSKADYEKHKVYACEVTHQGLSSPVTKSFNRGEC
heavy 2: B1 heavy 2
light 2: B1 light 2
notes: Fab-arm exchange of IgG1-b12-FERL and IgG1-DR4-FERR; also called bsIgG1-ctrl-FERLxDR4-FERR
**Q.** How did the EC50 [1] turn out when B2 was run?
**A.** The EC50 was 0.59 µg/mL.

**Q.** What about the EC50 [2] of the same binder?
**A.** The EC50 was 1.63 µg/mL.

**Q.** What about the EC50 [3] of the same binder?
**A.** The EC50 was 1.02 µg/mL.

**Q.** And the EC50 [4]?
**A.** Its EC50 is 0.67 µg/mL.

**Q.** What about the “Max MFI (at 90 µg/mL)” value [4] of the same binder?
**A.** Its value is 7840 MFI.

B3: IgG1-FAPα-FERL (antibody)
heavy: B1 heavy 1
light: B1 light 1
notes: Bivalent monoclonal IgG1 kappa
**Q.** For B3, which EC50 [5] is on record?
**A.** The EC50 was 0.11 µg/mL.

B4: BisG1-FAPα-FEAL/b12-FEAR (bispecific antibody, human IgG1, kappa)
heavy 1: B1 heavy 1 with R240G, D269A
light 1: B1 light 1
heavy 2: B2 heavy 1 with R246G, D275A, L415F, K419R
light 2: B2 light 1
notes: Fab-arm exchange of IgG1-FAPα-FEAL and IgG1-b12-FEAR
**Q.** With B4 as the binder, how does the EC50 [5] read?
**A.** Its EC50 is 0.16 µg/mL.

B5: IgG1-DR4-FERR (antibody, V domains shown)
VH: QVQLQESGPGLVKPSGTLSLTCAVSGGSISSYSWWSWIRQPPGKGLEWIGELYHSGSTNYNPSLKSRVTISVDKSKNQFSLKLRSVTAADTAVYYCVRGVATIDYWGQGTLVTVSS
VL: QSALTQPPSASGSPGQSVTISCTGTSSDVGGYNFVSWYQQDPGKAPKLLIYEVTKRPSGVPDRFSGSKSGNTASLTVSGLQAEDEADYYCSSYAGSNNVMFGGGTKLTVLG
notes: Bivalent monoclonal IgG1 lambda
**Q.** Which EC50 [1] does the source give for B5 here?
**A.** Its EC50 is 0.18 µg/mL.

**Q.** And the EC50 [2]?
**A.** The EC50 was 0.49 µg/mL.

**Q.** What about the EC50 [3] of the same binder?
**A.** The EC50 was 0.32 µg/mL.

**Q.** And the EC50 [4]?
**A.** Its EC50 is 0.25 µg/mL.
